Data on two substances can be found in article PMC7386315.

As usually defined, the Kd is the concentration at which binding is half-saturated.

The subject of data set [1] is MoCdc5-DBD (Magnaporthe oryzae P131). Kind of data set: BLI. (In BLI a coated tip is dipped into the sample, and binding shifts an interference pattern.)
Data set [2] deals with AtCdc5-DBD (Arabidopsis thaliana). Kind of data set: BLI.

On to MIR167a, for which the Kd is 5.17 10^-8 M in data set [1] and 8.98 10^-8 M in data set [2].

Turning to U6 RNA, the Kd in data set [1] is 1.38 10^-8 M.
